Target: human BCMA (huBCMA), full length, on cells (human) (UniProt Q02223)
Assay: FACS, H929 cells, negative control

Sequence of human BCMA (huBCMA), full length, on cells (human) (Q02223 whole entry N81S): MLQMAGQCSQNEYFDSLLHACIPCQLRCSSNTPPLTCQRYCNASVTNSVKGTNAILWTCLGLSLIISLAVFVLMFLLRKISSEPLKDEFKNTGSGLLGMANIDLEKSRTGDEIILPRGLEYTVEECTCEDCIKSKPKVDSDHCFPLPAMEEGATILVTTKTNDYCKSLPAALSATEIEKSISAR

MFI: 8
Substance: hu IgG1 (antibody)

Reference: patent US20170165373A1
